Results published in PMC6901930.

Molecular target: Major capsid protein (MCP), Trx fusion (Singapore grouper iridovirus (SGIV-Gx), UniProt Q5YFJ3 1-463)
Test: EMSA
Conditions: protein: recombinant; tags: Trx-His (pET-32a), 68 kDa

B1: Q5c (ssDNA)
DNA: TATTCGGGTTATTGCTCCTCTTTATTGTCACCTGGATGTATGATCGTGTAG
B1: binds.
